Results from patent JP2016106147A (dated 2016).
Values joined by “and” are separate entries in the source; they are usually repeats but may differ in a detail not shown here. Equal values may be shown once.

B1: マウス抗体AB0046 (antibody, V domains shown)
VH: QVQLQQPGSVLVRPGASVKLSCTASGYTFTSYWMNWVKQRPGQGLEWIGEIYPISGRTNYNEKFKVKATLTVDTSSSTAYMDLNSLTSEDSAVYYCARSRANWDDYWGQGTTLTVSS
VL: DIQMTQTTSSLSASLGDRVTISCSASQGISNYLNWYQQKPDGTFKLLIYYTSILHSGVPSRFSGSGSGTDYSLTISNLEPEDIATYYCQQYGWLPRTFGGGTKLEIKR
notes: Mouse IgG1/kappa anti-mouse MMP9 antibody; also called AB0046; AB0046抗体
B2: マウスモノクローナル抗MMP9抗体(AB0041) (antibody, mouse IgG2b, V domains shown)
VH: QVQLKESGPGLVAPSQSLSITCTVSGFSLLSYGVHWVRQPPGKGLEWLGVIWTGGTTNYNSALMSRLSISKDDSKSQVFLKMNSLQTDDTAIYYCARYYYGMDYWGQGTSVTVSS
VL: DIVMTQSHKFMSTSVGDRVSITCKASQDVRNTVAWYQQKTGQSPKLLIYSSSYRNTGVPDRFTGSGSGTDFTFTISSVQAEDLAVYFCQQHYITPYTFGGGTKLEIK
notes: also called AB0041; AB0041抗体
B3: ヒト化変異体抗MMP9抗体AB0045(ヒト化、改変IgG4(S241P)) (antibody, V domains shown)
VH: QVQLQESGPGLVKPSETLSLTCTVSGFSLLSYGVHWVRQPPGKGLEWLGVIWTGGTTNYNSALMSRFTISKDDSKNTVYLKMNSLKTEDTAIYYCARYYYGMDYWGQGTLVTVSS
VL: DIQMTQSPSSLSASVGDRVTITCKASQDVRNTVAWYQQKPGKAPKLLIYSSSYRNTGVPDRFSGSGSGTDFTLTISSLQAEDVAVYYCQQHYITPYTFGGGTKVEIKR
notes: also called AB0045; AB0045抗体

Experiments:
[1] = molecular target: T1, マウスMMP9 (mouse, UniProt P41245 20-730, limits assumed); experiment: ELISA
T1 construct: The immunogen for AB0046 was a pro/catalytic domain fragment of mouse MMP9; also called mouse MMP9
T1 sequence (P41245 20-730 limits assumed): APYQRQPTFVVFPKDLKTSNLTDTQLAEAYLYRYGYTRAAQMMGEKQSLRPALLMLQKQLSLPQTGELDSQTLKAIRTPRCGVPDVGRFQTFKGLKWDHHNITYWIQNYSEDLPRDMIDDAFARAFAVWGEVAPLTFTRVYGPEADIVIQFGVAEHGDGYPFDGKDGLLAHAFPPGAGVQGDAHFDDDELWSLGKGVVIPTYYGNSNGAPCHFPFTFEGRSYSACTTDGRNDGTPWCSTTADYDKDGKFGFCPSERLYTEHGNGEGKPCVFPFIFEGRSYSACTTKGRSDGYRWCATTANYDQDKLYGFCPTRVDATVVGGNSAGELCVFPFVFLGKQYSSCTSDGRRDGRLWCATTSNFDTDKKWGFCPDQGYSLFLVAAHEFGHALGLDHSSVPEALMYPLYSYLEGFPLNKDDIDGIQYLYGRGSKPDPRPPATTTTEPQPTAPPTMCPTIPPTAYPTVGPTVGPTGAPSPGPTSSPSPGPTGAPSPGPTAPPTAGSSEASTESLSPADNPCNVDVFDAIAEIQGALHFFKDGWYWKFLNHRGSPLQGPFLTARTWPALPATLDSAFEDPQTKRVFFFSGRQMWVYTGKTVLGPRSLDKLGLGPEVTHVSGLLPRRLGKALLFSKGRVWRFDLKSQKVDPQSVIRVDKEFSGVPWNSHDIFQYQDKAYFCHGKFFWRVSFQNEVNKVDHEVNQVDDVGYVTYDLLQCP

[2] = molecular target: T1, マウスMMP9; experiment: cell-based or functional assay
[3] = molecular target: T2, ヒトMMP9 (human, UniProt P14780 20-707, limits assumed); experiment: SPR
T2 construct: also called human MMP9; ゼラチナーゼ−B
T2 sequence (P14780 20-707 Q279R/R574P limits assumed): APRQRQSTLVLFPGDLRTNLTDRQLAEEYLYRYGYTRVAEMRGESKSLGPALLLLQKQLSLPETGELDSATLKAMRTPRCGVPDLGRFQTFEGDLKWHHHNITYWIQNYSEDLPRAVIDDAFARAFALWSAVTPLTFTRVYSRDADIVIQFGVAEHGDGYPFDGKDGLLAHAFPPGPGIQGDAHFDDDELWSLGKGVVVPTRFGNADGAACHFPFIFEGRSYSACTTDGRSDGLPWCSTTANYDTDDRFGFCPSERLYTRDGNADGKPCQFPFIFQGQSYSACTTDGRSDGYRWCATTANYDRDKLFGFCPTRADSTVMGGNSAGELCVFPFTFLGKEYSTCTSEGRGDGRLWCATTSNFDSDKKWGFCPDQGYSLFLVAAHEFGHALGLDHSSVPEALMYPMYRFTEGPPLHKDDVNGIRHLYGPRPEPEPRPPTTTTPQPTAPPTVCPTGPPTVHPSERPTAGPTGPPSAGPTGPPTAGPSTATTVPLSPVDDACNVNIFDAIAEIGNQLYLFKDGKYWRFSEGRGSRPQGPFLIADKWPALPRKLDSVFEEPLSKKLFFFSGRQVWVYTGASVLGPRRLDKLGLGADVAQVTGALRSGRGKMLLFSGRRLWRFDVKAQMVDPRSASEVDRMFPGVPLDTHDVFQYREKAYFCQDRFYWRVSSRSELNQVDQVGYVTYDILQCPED

[4] = molecular target: T3, カニクイザルMMP9 (cynomolgus monkey, UniProt A0A2K5UU71 20-706); experiment: ELISA
T3 construct: also called cynomolgus MMP9; 組換えカニクイザルMMP9
T3 sequence (A0A2K5UU71 entry or part of it): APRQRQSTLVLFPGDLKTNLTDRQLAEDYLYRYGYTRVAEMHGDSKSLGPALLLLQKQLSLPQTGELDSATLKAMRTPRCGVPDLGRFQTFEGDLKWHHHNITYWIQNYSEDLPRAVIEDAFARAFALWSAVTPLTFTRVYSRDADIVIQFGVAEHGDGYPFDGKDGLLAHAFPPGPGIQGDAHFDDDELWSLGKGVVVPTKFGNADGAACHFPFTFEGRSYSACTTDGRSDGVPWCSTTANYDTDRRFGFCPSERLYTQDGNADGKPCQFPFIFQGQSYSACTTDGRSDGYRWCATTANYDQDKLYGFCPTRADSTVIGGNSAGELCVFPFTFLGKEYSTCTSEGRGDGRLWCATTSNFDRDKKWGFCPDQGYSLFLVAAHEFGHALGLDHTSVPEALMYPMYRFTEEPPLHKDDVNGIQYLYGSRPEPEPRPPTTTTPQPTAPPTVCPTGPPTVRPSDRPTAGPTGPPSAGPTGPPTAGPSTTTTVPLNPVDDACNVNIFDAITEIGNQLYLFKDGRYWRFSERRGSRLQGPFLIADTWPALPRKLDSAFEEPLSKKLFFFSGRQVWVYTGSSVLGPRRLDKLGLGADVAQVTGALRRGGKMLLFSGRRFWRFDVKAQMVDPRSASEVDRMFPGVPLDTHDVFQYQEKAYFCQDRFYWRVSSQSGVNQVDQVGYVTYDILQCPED

[5] = molecular target: T4, ラットMMP9 (rat, UniProt P50282 20-708, limits assumed); experiment: ELISA
T4 construct: also called rat MMP9; 組換えラットMMP9
T4 sequence (P50282 20-708 limits assumed): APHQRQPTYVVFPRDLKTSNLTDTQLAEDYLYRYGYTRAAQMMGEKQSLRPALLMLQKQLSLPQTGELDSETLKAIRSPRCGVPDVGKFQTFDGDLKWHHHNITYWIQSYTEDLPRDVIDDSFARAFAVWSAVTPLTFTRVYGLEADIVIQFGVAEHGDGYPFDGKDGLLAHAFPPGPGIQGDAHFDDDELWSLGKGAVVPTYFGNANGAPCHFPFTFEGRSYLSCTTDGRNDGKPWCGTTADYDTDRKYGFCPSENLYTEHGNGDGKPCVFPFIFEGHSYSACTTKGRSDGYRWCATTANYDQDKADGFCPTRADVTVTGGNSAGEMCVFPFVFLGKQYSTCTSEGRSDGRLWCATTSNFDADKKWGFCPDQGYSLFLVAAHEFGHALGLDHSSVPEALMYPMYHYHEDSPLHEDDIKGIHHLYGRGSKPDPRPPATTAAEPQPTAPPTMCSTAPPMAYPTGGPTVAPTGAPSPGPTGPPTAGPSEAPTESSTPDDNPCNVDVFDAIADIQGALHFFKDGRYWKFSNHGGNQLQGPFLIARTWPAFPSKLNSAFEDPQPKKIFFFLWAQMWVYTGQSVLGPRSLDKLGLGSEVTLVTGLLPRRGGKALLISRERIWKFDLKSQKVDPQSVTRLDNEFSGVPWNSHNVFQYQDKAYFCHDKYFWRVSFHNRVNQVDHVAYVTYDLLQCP

[6] = molecular target: T2, ヒトMMP9; experiment: cell-based or functional assay
[7] = molecular target: T1, マウスMMP9; experiment: binding test (Table 2, not shown)
[8] = molecular target: T2, ヒトMMP9; experiment: ELISA
[9] = molecular target: T2, ヒトMMP9; experiment: direct binding assay and SPR

| Binder | Kd [1] [pM] | IC50, MMP9-mediated cleavage of fluorogenic peptide substrate Mca-PLGL-Dpa-AR-NH2 [2] [nM] | Kd [3] [pM] | Kd [4] [pM] | Kd [5] [pM] | IC50, MMP9-mediated cleavage of fluorogenic peptide substrate Mca-PLGL-Dpa-AR-NH2 [6] [nM] | binding result [7] | Kd [8] | Kd [9] [pM] |
| --- | --- | --- | --- | --- | --- | --- | --- | --- | --- |
| B1 | 218 | 0.352 | – | – | – | – | – | – | – |
| B2 | – | – | 0.4 | < 400 | < 400 | 0.569 | no binding | – | – |
| B3 | – | – | 8.8 | < 400 | < 400 | 0.691 | – | < 400 pM and 168 pM | ~1 |
